We go through six molecules from patent US20170321220A1 (INDIANA UNIVERSITY RESEARCH AND TECHNOLOGY, published 2017).

In experiment [1] the target is P22 procapsid (PC) after removal of the Dec-binding sub-population (bacteriophage P22 (filing: P22 VLP from Salmonella typhimurium)) (UniProt P26747). The experiment can be described thus: SEC retention shift after incubation with DecWT; PC control row 0±0.001.
For experiment [2] the target is unchanged. The experiment can be described thus: SEC-MALS, particle molecular weight after incubation with DecWT; PC control row 22.8±0.7. For orientation: SEC sorts molecules by how far they enter the pores of the column.
Experiment [3] shares this target. The experiment is described as follows: SEC-QELS, particle radius of hydration after incubation with DecWT; PC control row 26.4±0.5.
For experiment [4] the target is unchanged. The experiment can be described thus: SEC-MALS, number of Dec monomers calculated from the difference between bound and control particle molecular weight; PC control row 0±43.
For experiment [5], the target named is T1, EX P22 VLP (expanded form of the bacteriophage P22 virus-like particle) (bacteriophage P22 (filing: P22 VLP from …, UniProt P26747 2-430)).
The target of experiment [6] is T1, EX P22 VLP (expanded form of the …). The experiment can be described thus: SPR, EX P22 immobilised, two-site fit, tighter site. (In general: Surface plasmon resonance follows binding to a sensor surface in real time, without labels.)
Experiment [7] shares this target. The experiment can be described thus: SPR, EX P22 immobilised, two-site fit, low-affinity site.
The target is the same in experiment [8]. The experiment is described as follows: SPR, EX P22 immobilised, two-site global fit; site 2, column 'Ka2 (M-1 s-1)'.
Experiment [9] has the same target. The experiment can be described thus: SEC retention shift of P22 upon Dec binding; EX control row 0±0.008.
The target is the same in experiment [10]. The experiment is described as follows: SEC-MALS, particle molecular weight with Dec bound; EX control row 20.5±0.2.
The target is the same in experiment [11]. The experiment can be described thus: SEC-QELS, particle radius of hydration with Dec bound; EX control row 28.4±0.7.
For experiment [12] the target is unchanged. The experiment is described as follows: SPR, EX P22 immobilised, two-site global fit; site 1, column 'Kd1 (s-1 x 10-4)'.
Experiment [13] has the same target. The experiment is described as follows: SPR, from the fitted parameters.
The target is the same in experiment [14]. The experiment can be described thus: SPR, EX P22 immobilised, two-site fit, high-affinity site.
Experiment [15] shares this target. The experiment can be described thus: SPR, extended 4 h dissociation, two independent sites, weak site.
For experiment [16] the target is unchanged. The experiment can be described thus: SPR, extended 4 h dissociation, two independent sites, tight site.
The target is the same in experiment [17]. The experiment is described as follows: SPR, EX P22 immobilised, single-site fit of the low concentrations.
The target is the same in experiment [18]. The experiment can be described thus: SPR, two-site fit with the tight-site kd fixed at the value of the 4 h dissociation.
Experiment [19] shares this target. This is another data set of the same source.
Experiment [20] has the same target. The experiment is described as follows: SPR, single-site fit.
Experiment [21] has the same target. The experiment can be described thus: SPR, EX P22 immobilised, two-site global fit; site 2, column 'KD2 (nM)'.

Read-outs that look alike come from different tables or passages of the source.

T1 sequence (P26747 2-430 limits assumed): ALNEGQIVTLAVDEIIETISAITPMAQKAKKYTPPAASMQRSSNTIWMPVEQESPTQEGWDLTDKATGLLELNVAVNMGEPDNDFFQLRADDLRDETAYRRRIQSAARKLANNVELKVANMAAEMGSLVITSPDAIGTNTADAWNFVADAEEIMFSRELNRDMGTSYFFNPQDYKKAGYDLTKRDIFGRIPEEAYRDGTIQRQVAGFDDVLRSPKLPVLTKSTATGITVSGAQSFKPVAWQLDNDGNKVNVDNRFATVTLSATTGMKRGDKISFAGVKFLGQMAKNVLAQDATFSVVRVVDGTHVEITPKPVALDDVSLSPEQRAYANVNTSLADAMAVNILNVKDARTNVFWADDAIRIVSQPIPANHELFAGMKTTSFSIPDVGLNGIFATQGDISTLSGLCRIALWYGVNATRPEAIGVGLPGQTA
Sequence of P22 procapsid (PC) after removal of the Dec-binding sub-population (bacteriophage P22 (filing: P22 VLP from Salmonella typhimurium)) (P26747 2-430, chain 1 of 2): as the sequence (P26747 2-430 limits assumed) above
Sequence of P22 procapsid (PC) after removal of the Dec-binding sub-population (bacteriophage P22 (filing: P22 VLP from Salmonella typhimurium)) (P26748 whole entry, chain 2 of 2, further chain): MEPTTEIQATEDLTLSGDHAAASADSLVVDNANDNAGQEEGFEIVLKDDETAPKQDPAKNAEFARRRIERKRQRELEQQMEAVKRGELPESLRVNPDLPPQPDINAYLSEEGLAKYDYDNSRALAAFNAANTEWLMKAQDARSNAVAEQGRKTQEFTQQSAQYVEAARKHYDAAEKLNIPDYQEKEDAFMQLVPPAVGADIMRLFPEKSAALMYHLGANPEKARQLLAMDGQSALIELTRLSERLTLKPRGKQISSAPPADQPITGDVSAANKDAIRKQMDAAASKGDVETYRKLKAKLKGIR

DecWT: in experiment [1], the retention shift came out at 0.03 min. The molecule further had an MW (MDa) in [2] of 23.2 MDa. For the same molecule, the Rh (nm) in experiment [3] worked out at 26.6 nm. For the same molecule, in experiment [4], the Dec monomers is 24 monomers.

B1: DecmCD40L (Dec fused at its C-terminus to the soluble region of murine CD40L) (ligand)
chain: MGSSHHHHHHSQDPMANPNFTPSWPLYKDADGVYVSALPIKAIKYANDGSANAEFDGPYADQYMSAQTVAVFKPEVGGYLFRSQYGELLYMSKTAFEANYTSASGSVANAETADKLSTARTITLTGAVTGSASFDGSANVTIETTSGSELQRGDEDPQIAAHVVSEANSNAASVLQWAKKGYYTMKSNLVMLENGKQLTVKREGLYYVYTQVTFCSNREPSSQRPFIVGLWLKPSSGSERILLKAANTHSSSQLCEQQSVHLGGVFELQAGASVFVNVTEASQVIHRVGFSSFGLLKL
Broadly, the koff is the first-order rate constant of dissociation. A higher koff goes with fast dissociation. The term Kd denotes a measure of binding affinity in units of concentration. A high value points to weaker binding. What is called kon is the second-order rate constant of association. The low end stands for slow association, the high end for fast association. Regarding B1, the koff in experiment [5] worked out at 0.0068 s⁻¹; in [6], 0.0002 s⁻¹. For the same molecule, the Kd amounted to 30.8 nM in experiment [6] and 1420 nM in [7]. The kon in experiment [6] was determined as 6440 M⁻¹ s⁻¹; in [8] it was 4820 M⁻¹ s⁻¹.

B2: DecΔ11 (Dec lacking the first 11 N-terminal residues) (other)
chain: MGSSHHHHHHSQDPLYKDADGVYVSALPIKAIKYANDGSANAEFDGPYADQYMSAQTVAVFKPEVGGYLFRSQYGELLYMSKTAFEANYTSASGSVANAETADKLSTARTITLTGAVTGSASFDGSANVTIETTSGS
Turning to B2, the koff in experiment [5] amounted to 0.0044 s⁻¹; in experiment [12], 4.4e-05 s⁻¹. For the same molecule, the on-rate (kon) in experiment [5] came to 9200 M⁻¹ s⁻¹; in experiment [8], 38300 M⁻¹ s⁻¹. In [9], the “retention shift” value is 0.595 min. Further, in experiment [10], the “MW (MDa)” value was 23.6 MDa. For the same molecule, the “Rh (nm)” value in experiment [11] was 30.1 nm.

B3: DecWT (other)
chain: MGSSHHHHHHSLVPRGSQDPMANPNFTPSWPLYKDADGVYVSALPIKAIKYANDGSANAEFDGPYADQYMSAQTVAVFKPEVGGYLFRSQYGELLYMSKTAFEANYTSASGSVANAETADKLSTARTITLTGAVTGSASFDGSANVTIETTSGS
notes: also called Dec with an N-terminal his-tag
As for B3, the dissociation constant Kd in experiment [5] worked out at 446 nM; in experiment [7] it was 1500 nM; in [14], 9.2 nM; in [17], 24 nM; in experiment [18], 0.255 nM. For the same molecule, the koff in experiment [5] is 0.00182 s⁻¹; in experiment [7] it was 0.00298 s⁻¹; in [14] it was 0.000106 s⁻¹; in experiment [15], 0.00095 s⁻¹; in [16], 3.2e-06 s⁻¹; in experiment [17] it was 0.00033 s⁻¹. Besides, the “half-life of binding at the tight-site” value in [13] is at least 60 h. The values for the kon in experiment [7], in experiment [14] and in experiment [17] were 1980 M⁻¹ s⁻¹, 11500 M⁻¹ s⁻¹ and 13800 M⁻¹ s⁻¹, respectively. For the same molecule, the “retention shift” value in experiment [9] stood at 0.619 min. The “MW (MDa)” value in experiment [10] is 23 MDa. Besides, the “Rh (nm)” value in [11] came out at 29.6 nm.

B4: DecΔ20 (Dec lacking the first 20 N-terminal residues) (other)
chain: MGSSHHHHHHSQDPVSALPIKAIKYANDGSANAEFDGPYADQYMSAQTVAVFKPEVGGYLFRSQYGELLYMSKTAFEANYTSASGSVANAETADKLSTARTITLTGAVTGSASFDGSANVTIETTSGS
B4 showed a dissociation constant (Kd) in [19] of 3500 nM. For the same molecule, in experiment [5], binding was put at a Kd of 3450 nM and the koff was found to be 0.00024 s⁻¹. Besides, the “fold reduction in KD from the high-affinity site of DecWT” value in [20] was above 300 fold.

B5: DecSelf (Dec fused at its C-terminus to the 21 amino acid CD47 mimic Self-peptide) (other)
chain: MGSSHHHHHHSQDPMANPNFTPSWPLYKDADGVYVSALPIKAIKYANDGSANAEFDGPYADQYMSAQTVAVFKPEVGGYLFRSQYGELLYMSKTAFEANYTSASGSVANAETADKLSTARTITLTGAVTGSASFDGSANVTIETTSGSELGNYTCEVTELTREGETIIELK
Take B5: the koff in experiment [5] amounted to 0.00323 s⁻¹; in experiment [6] it was 0.0002 s⁻¹. For the same molecule, the results for the dissociation constant Kd in experiment [6], in experiment [7] and in experiment [21] were 18.3 nM, 146 nM and 146 nM, respectively. Further, the kon was 11200 M⁻¹ s⁻¹ in experiment [6] and 2190 M⁻¹ s⁻¹ in [8]. Further, in [9], the “retention shift” value is 0.5 min. Further, the “MW (MDa)” value in experiment [10] came to 22.6 MDa. The “Rh (nm)” value in [11] was 29.6 nm.
